Results on one protein are retold here after PMC7747229 (Nature, 2020).

Values joined by “and” are separate entries in the source; they are usually repeats but may differ in a detail not shown here. Equal values may be shown once.

This data set deals with the molecule itself. Description: cryo-EM structure.

B1: KAT1em (KAT1 from Arabidopsis thaliana, amino acids M1-S502) (domain or fragment)
chain: not shown
A word on the stoichiometry N: it is the number of molecules, sites or subunits per partner or assembly. On to B1, for which the “stoichiometry N” value was 8 and 4.
